Data from article PMC3865061.

Key:
[1] = molecular target: T1, Influenza A virus matrix protein M1 (full-length), strain A/Puerto Rico/8/34 (H1N1) (Influenza A virus A/Puerto Rico/8/34 (H1N1)), P03485; assay: SAXS; conditions: remark: other sources report otherwise
T1 chain: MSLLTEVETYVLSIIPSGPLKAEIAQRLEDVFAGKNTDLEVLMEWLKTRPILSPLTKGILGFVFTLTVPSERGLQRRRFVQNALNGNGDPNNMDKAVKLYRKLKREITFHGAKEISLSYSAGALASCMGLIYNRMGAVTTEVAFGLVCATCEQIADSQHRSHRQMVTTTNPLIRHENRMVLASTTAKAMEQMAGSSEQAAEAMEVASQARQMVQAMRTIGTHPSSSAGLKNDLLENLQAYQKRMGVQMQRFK

[2] = molecular target: T1, Influenza A virus matrix protein M1 …; assay: AUC; conditions: remark: other sources report otherwise

B1: Influenza A virus matrix protein M1 (full-length), strain A/Puerto Rico/8/34 (H1N1), P03485 1-252 (natural protein)
chain: T1 chain
volume fraction of clusters (volume fraction) [1]: 0.03 | volume percent of large associates (volume percent) [2]: 2 to 3
